First the molecules themselves.
B1: Neuroligin-1 (Mus musculus), Q99K10-1 (parent)
chain: MALPRCMWPNYVWRAMMACVVHRGSGAPLTLCLLGCLLQTFHVLSQKLDDVDPLVTTNFGKIRGIKKELNNEILGPVIQFLGVPYAAPPTGEHRFQPPEPPSPWSDIRNATQFAPVCPQNIIDGRLPEVMLPVWFTNNLDVVSSYVQDQSEDCLYLNIYVPTEDGPLTKKHTDDLGDNDGAEDEDIRDSGGPKPVMVYIHGGSYMEGTGNLYDGSVLASYGNVIVITVNYRLGVLGFLSTGDQAAKGNYGLLDLIQALRWTSENIGFFGGDPLRITVFGSGAGGSCVNLLTLSHYSEGNRWSNSTKGLFQRAIAQSGTALSSWAVSFQPAKYARILATKVGCNVSDTVELVECLQKKPYKELVDQDVQPARYHIAFGPVIDGDVIPDDPQILMEQGEFLNYDIMLGVNQGEGLKFVENIVDSDDGVSASDFDFAVSNFVDNLYGYPEGKDVLRETIKFMYTDWADRHNPETRRKTLLALFTDHQWVAPAVATADLHSNFGSPTYFYAFYHHCQTDQVPAWADAAHGDEVPYVLGIPMIGPTELFPCNFSKNDVMLSAVVMTYWTNFAKTGDPNQPVPQDTKFIHTKPNRFEEVAWTRYSQKDQLYLHIGLKPRVKEHYRANKVNLWLELVPHLHNLNDISQYTSTTTKVPSTDITLRPTRKNSTPVTSAFPTAKQDDPKQQPSPFSVDQRDYSTELSVTIAVGASLLFLNILAFAALYYKKDKRRHDVHRRCSPQRTTTNDLTHAPEEEIMSLQMKHTDLDHECESIHPHEVVLRTACPPDYTLAMRRSPDDIPLMTPNTITMIPNTIPGIQPLHTFNTFTGGQNNTLPHPHPHPHSHSTTRV

The variants in the experiment derive from B1. The note with it: with NRXN1, P58400-1.
Chain of NRXN1, P58400-1 (P58400 other isoform, or with tags, fused parts or gaps): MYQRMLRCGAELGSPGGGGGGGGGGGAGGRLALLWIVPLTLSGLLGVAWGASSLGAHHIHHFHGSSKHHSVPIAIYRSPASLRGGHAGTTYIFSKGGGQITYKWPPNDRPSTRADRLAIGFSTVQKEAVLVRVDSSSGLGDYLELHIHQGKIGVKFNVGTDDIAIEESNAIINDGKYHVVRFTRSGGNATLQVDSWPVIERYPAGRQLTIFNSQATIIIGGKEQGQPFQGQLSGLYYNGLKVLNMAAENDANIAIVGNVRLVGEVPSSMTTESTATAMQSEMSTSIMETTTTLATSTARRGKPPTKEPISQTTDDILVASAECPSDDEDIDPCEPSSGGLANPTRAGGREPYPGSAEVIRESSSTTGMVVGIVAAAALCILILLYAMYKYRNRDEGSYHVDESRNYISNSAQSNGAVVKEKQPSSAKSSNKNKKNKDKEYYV
In the case of E397A, the “effect of a mutation on the interaction” value is “disrupting interaction”.
Next, N400A: “disrupting interaction”.
